Reference: paper PMC10393194

Target: THO complex (endogenous, purified via Sub2 and Hpr1-TS) (S. cerevisiae | S. cerevisiae (endogenous in yeast)) (UniProt P17629)
Assay: cryo-EM structure; single-particle cryo-EM of the benzonase-treated native eluate on 2-nm carbon-supported grids; Glacios 200 kV; heterogeneous and nonuniform refinement without imposed symmetry

stoichiometry N: 2
Substance: THO complex (endogenous, purified via Sub2 and Hpr1-TS) (from UniProt P17629 1-752; P53552 1-1597)
